System: K4 kissing-loop RNA reporter
Assay: apparent KD of K4 kissing-loop reporter; higher = weaker reporter binding
Conditions: Eterna round: R107
Protocol: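 RNA-MaP round R107: designed RNA switches with theophylline, tryptophan, arginine or FMN aptamers are transcribed on-chip within common flanks. They are titrated with a labelled K4 kissing-loop RNA reporter in RNA-MaP buffer (100 mM Tris pH 7.5, 80 mM KCl, 4 mM MgCl2), without ligand or with the indicated ligand. Median apparent KD per design.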

[1] = input ligand: theophylline 20 uM
[2] = input ligand: tryptophan 2.4 mM
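Also: bound reporter read as fluorescence of individual clusters on recovered sequencing chips by microscopy, with normalized cluster intensities fitted with a binding model.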

Row | Sequence | apparent KD of K4 kissing-loop reporter (input ligand: FMN 200 uM) | apparent KD of K4 kissing-loop reporter (input ligand: arginine 13.2 mM) | apparent KD of K4 kissing-loop reporter (input ligand: none) | apparent KD of K4 kissing-loop reporter [1] | apparent KD of K4 kissing-loop reporter [2]
1 | CUUGAUCGAGGAAGGAGCGGGCCGUCAUUGAGCGCAGUGAUGUUGCGUUCGACUAGUCGAGCCCAGGUAGGUCGCCUGGAGUAAG [Lazalaa] | 84.9 nM | 76.1 nM | 98.2 nM | 78.2 nM | 90.8 nM
2 | CUUGAUGUAGCGGCCGCCACUCUAGAUCCGCAUCGGAUGAGGUACUUGAAGUGAUGUUUUGAGGUGAGGACCGGGCUCUAAAGAA [theeternabot_sameState_KL_Trp_B_16] | 750 nM | 455 nM | 564 nM | 452 nM | 420 nM
3 | CUUGUACAUGCCGAGGUAGGUGCGGGUUAGCGAGGACCGGUACGGCCGCCACUCGCCAAGUGAUGUUUGGUCCUUUGGAUCGGCA | 1220 nM | 453 nM | 366 nM | 690 nM | 183 nM
4 | GAAAGAAAGUAUGAUACCAGACACCCGAGUGAUGUUCGGAGCAGAGUGAUGUUCUUUUAAGUCCCUUGGCAGCAUAAAAGAAAAG [whbob_SS_Theo_B_sa83] | 192 nM | 219 nM | 238 nM | 294 nM | 166 nM
5 | GAAUGAUAGUAAGGAUAUAGAUAAUCCUUAUAUAUAUCGAGUGAUGUUCGAUGUGGCAAGAUACAUCUAGAAGGUACUGUAAGGU [Same State FMN B GF 16] | 309 nM | 321 nM | 361 nM | 361 nM | 240 nM
6 | GACAGCCGGUCGGCCGCCACUUGGAGUGAUGUUCCGCGCGGCGGGCGCCGGAGGGCGUUAAGCCCAAGGACCGGGACCGGUAACG [Celeso] | 114 nM | 103 nM | 92.9 nM | 114 nM | 104 nM
7 | GACGUGCGAGAGACCGCUCUACCUUGAGAUCGAGGACCGGUACGGCCGCCACUCGGUGUUUAACGUCGAUCCCAGUGAUGUUGGA [theeternabot_sameState_KL_Trp_A_21] | 521 nM | 230 nM | 429 nM | 450 nM | 234 nM
8 | GACUCUCUCGUCAGGAAGACGCACUCAGCCAAGGAUAUUAUGUUUUUAAGAAGGUGGACUUAUGCCAGUGAUGUUGGCAGAUACG [theeternabot_sameState_KL_FMN_A_29] | 50.6 nM | 86.1 nM | 67.6 nM | 99.9 nM | 57.1 nM
9 | GAGGCCAGACUGAGUGAUGUUUAGUAUGAUACCAGUAUCGAAGGAUACCCUUGGCAGCAUGCCACGGCCUCGGCGGGAAACCGCC | 746 nM | 663 nM | 1000 nM | 714 nM | 876 nM
10 | GAGGUAUGCGCAGUGAUGUUGCGACGAGAUACCAGUCGUUCUGUCGACCCUUGGCAGCUCCCACCAGACGUACGAGUUUGUGUUG [theeternabot_sameState_KL_Theo_A_10] | 114 nM | 111 nM | 113 nM | 113 nM | 99.5 nM
11 | GAGUCCUUUGAAGGAUAUAGACGUCCCGAUCACUCAGUUGGCGAGCGAGUGAUGUUCGUUCCUAUACUAGAAGGUCAAAGCCUCC [theeternabot_sameState_KL_FMN_B_32] | 225 nM | 193 nM | 211 nM | 204 nM | 205 nM
12 | GAUCAUAGCACGGCCGCCACUGAUAUGCCGUGCUAUACGAGUGAUGUUCGUAAUUAUACGGGUAUCAGGACCGGGUGCAACGGUA [Tryp B SS t2] | 149 nM | 89.3 nM | 113 nM | 167 nM | 112 nM
13 | GAUCUGAACGAAAGUUCGGAUCAGUCCGAUACCAGUAUGGAUUCAUACCCUUGGCAGCGGUUAUCUGCUAUGGAGUGAUGUUCCA [Theophylline A K4 11] | 502 nM | 344 nM | 483 nM | 321 nM | 348 nM
14 | GAUGCCAUGAUCCUCCUGGUAUCGGGAGAUACCAGCGUGCUGACACGCCCUUGGCAGCUCCAUUCGAGAGUGAUGUUGUCGAGAA [KL-SSTheo-A8 #analogue] | 453 nM | 114 nM | 330 nM | 237 nM | 287 nM
15 | GAUUGUGAUGGAAACAUCGCAAUCUCUGAAGGAGCGCGUGAAAACGCAGGUAGGUCGCAGGACGACAAAGACAGUGAUGUUGUCA [Ex Arginine A K4 1] | 335 nM | 319 nM | 311 nM | 369 nM | 380 nM
16 | GAUUUAGAGGCGGCCGCCACUAGUGAUGUUAGUGAUGUUUGAUACUGAAUAUAUCUGCGUGUAGAUAGGACCGGGCCAGAUGGAG [eyerullin] | 210 nM | 171 nM | 186 nM | 184 nM | 180 nM
17 | GAUUUAGAGGCGGCCGCCACUAGUGAUGUUAGUGAUGUUUGAUACUGAAUAUAUCUGCGUUUAGAUAGGACCGGGCCAGAUGGUG [ddcmullin] | 261 nM | 159 nM | 193 nM | 215 nM | 197 nM

Row | Sequence | apparent KD of K4 kissing-loop reporter (input ligand: FMN 200 uM) | apparent KD of K4 kissing-loop reporter (input ligand: arginine 13.2 mM) | apparent KD of K4 kissing-loop reporter (input ligand: none) | apparent KD of K4 kissing-loop reporter [1] | apparent KD of K4 kissing-loop reporter [2]
18 | GCAGGCGUAAAAGGAUAUCAGGCUCUCUAGACACGAGUGAUGUUUGUGUAGGUAACGUAAUAGGCAUGAGAAGGUUUCACUUAAA [theeternabot_sameState_KL_FMN_B_49] | 608 nM | 430 nM | 547 nM | 524 nM | 416 nM
19 | GCAGUGAUGUUGCACGAGUAGGCUAGAGUACGAGGACCGGUACGGCCGCCACUCGUACGGAAGUCGCUAAUUUAUGGAAUGGUGA [#05 K4 Tryptophan A Same State] | 713 nM | 473 nM | 548 nM | 455 nM | 435 nM
20 | GCAUGGAUCGCAGGAUAUAGAUCCGUGAGUGAAUUCUUGCCAGUGAGGAGUGAUGUUCCUCAUGGGCUAGAAGGGCGAUCCAUGC | 140 nM | 80.8 nM | 89.4 nM | 85.9 nM | 83.5 nM
21 | GCCAGCAGUACUGAUACCAGACUGCAUGUAGUGAUGUUGCAUAAGGGCAUAGAUGUCUCAGUCCCUUGGCAGCGGUACUGUUGCA [#10 K4 Theophylline B Same State] | 335 nM | 252 nM | 330 nM | 199 nM | 241 nM
22 | GCCAGUGCACGAAGGAGCGCCGUGACAGGUUACUGCCUUGGGCAGUGAUGUUGCUCAAUCUGGCAGGUAGGUCGCGUGCACUGGC | 169 nM | 147 nM | 170 nM | 175 nM | 177 nM
23 | GCCGCCGCGGCAGGAUAUAGACAUUGAGUGAUGUUCGGUGCUUAUCCAAAGUGCUGUUUCGGCCAACUAGAAGGGCCGCGGCGGC | 204 nM | 94 nM | 119 nM | 103 nM | 119 nM
24 | GCCGUACGCAUGGAUACCAGAGAUGUUAAUCUCGAUGCCAGUGAUGUUGGCUUUAGCAUACUCCCUUGGCAGCCAUGCGUACGGC | 312 nM | 241 nM | 292 nM | 186 nM | 267 nM
25 | GCCGUACGCAUGGAUACCAGCAAUAUGCUACGUUGUAGUAGUAUAACCAGUGAUGUUGGAUGCCCUUGGCAGCCAUGCGUACGGC | 736 nM | 673 nM | 897 nM | 349 nM | 855 nM
26 | GCCGUACGCAUGGAUACCAGCCGACAUGAUAUUUAGCUGGUGUCGUAGUGAUGUUACGAAGGCCCUUGGCAGCCAUGCGUACGGC | 83.7 nM | 72.7 nM | 78.2 nM | 79.1 nM | 78.7 nM
27 | GCCGUACGCAUGGAUACCAGUUGCGAAGUGAUGUUUCGGGCGAUCAAAGGAUCGCCCAACAACCCUUGGCAGCCAUGCGUACGGC | 216 nM | 42.5 nM | 119 nM | 108 nM | 133 nM
28 | GCCGUAGAUGGAAGGAGCGUGGUUAAUGUAAGUGAUGUUUACGAGGUCAACAAUUGACCGCCACAGGUAGGUCGCCAUCUACGGC | 60.4 nM | 57.4 nM | 57.2 nM | 53.1 nM | 56.4 nM
29 | GCCGUAGAUUGAAGGAGCGGGCCGUAGUGAUGUUACGCCAAUUUAUCUUUUCUUGAUGUGGCCCAGGUAGGUCGCAAUCUACGGC | 241 nM | 204 nM | 216 nM | 207 nM | 193 nM
30 | GCCGUAGAUUGAAGGAGCGGUAUGGGCGUUGGCUGAGUGAUGUUCAGGGAAAGUGGCUUCUACCAGGUAGGUCGCAAUCUACGGC | 164 nM | 129 nM | 157 nM | 170 nM | 137 nM
31 | GCCUAGGCUCGAAAGAGCCUAGGCUUGUCUCAGGAUAUCUGGAAACAGAGAAGGGAGCUACUAGUGAUGUUAGGAAUUCCCUAAG | 149 nM | 122 nM | 112 nM | 92.3 nM | 98 nM
32 | GCCUAGGCUCGAAAGAGCCUAGGCUUUACUCAGGAUAUCUGGAAACAGAGAAGGGAGCUACUAGUGAUGUUAGGAAUUCCCUAAG | 45.9 nM | 80.3 nM | 133 nM | 141 nM | 87.8 nM
33 | GCCUUUUUUCGAGCUACAGCUCGAUUUGGUCGAGGACCGGUACGGCCGCCACUCGAAUGAUAGUGAUGUUAUCAUUAUGGCAUAA [JR_ExcTryptoA_Sub023] | 196 nM | 166 nM | 176 nM | 186 nM | 152 nM
34 | GCGCGUCAUGUCAGCGGUGACACUGUCGAUACCAGCGCCGGAAGGCGCCCUUGGCAGCGACGUGCUGGAGUGAUGUUCCAGCGUC [#2 Exclusion - Theophylline A Attempt #21 (HarryS)] | 177 nM | 107 nM | 140 nM | 130 nM | 134 nM

— the supplement of paper PMC9170038
